The values that follow are results of earlier work, collected in article PMC12655228.

The target of this data set is HER2 (Homo sapiens) (UniProt P04626).

Trastuzumab: the dissociation constant (Kd) (in general, the free concentration of one partner at which half of the binding sites on the other are occupied at equilibrium, for simple one-to-one binding) is 100 pM.
